Bridges are numbered along the chain shown (N, C = ends). [ ]: non-standard residue; d: D form. Pen = CC(C)(S)[C@H](N)C(=O)O; hCys = N[C@@H](CCS)C(=O)O; Dap = NC[C@H](N)C(=O)O
B1: 001574C, Ac-Arg-(hCys-Thr-D-Phe-Arg-Trp-Pen)-NH2 (peptide)
peptide: Ac-R[hCys]T[dF]RW[Pen]-NH2
modifications: disulfide 2-7
SMILES: CC(=O)N[C@@H](CCCNC(=N)N)C(=O)N[C@H]1CCSSC(C)(C)[C@@H](C(N)=O)NC(=O)[C@H](Cc2c[nH]c3ccccc23)NC(=O)[C@H](CCCNC(=N)N)NC(=O)[C@@H](Cc2ccccc2)NC(=O)[C@H]([C@@H](C)O)NC1=O
B2: 001576C, Ac-Arg-(Glu-Gln-D-Phe-Arg-Trp-Dpr)-NH2 (peptide)
peptide: Ac-REQ[dF]RW[Dap]-NH2
modifications: lactam 2-7
SMILES: CC(=O)N[C@@H](CCCNC(=N)N)C(=O)N[C@H]1CCC(=O)NC[C@@H](C(N)=O)NC(=O)[C@H](Cc2c[nH]c3ccccc23)NC(=O)[C@H](CCCNC(=N)N)NC(=O)[C@@H](Cc2ccccc2)NC(=O)[C@H](CCC(N)=O)NC1=O
B3: 001556C, Ac-Arg-(hCys-Ser-D-Phe-Arg-Trp-Pen)-NH2 (peptide)
peptide: Ac-R[hCys]S[dF]RW[Pen]-NH2
modifications: disulfide 2-7
SMILES: CC(=O)N[C@@H](CCCNC(=N)N)C(=O)N[C@H]1CCSSC(C)(C)[C@@H](C(N)=O)NC(=O)[C@H](Cc2c[nH]c3ccccc23)NC(=O)[C@H](CCCNC(=N)N)NC(=O)[C@@H](Cc2ccccc2)NC(=O)[C@H](CO)NC1=O

How the values were obtained:
Experiment in all cases: cell-based or functional assay
[1] = target: melanocortin 5 receptor (human, UniProt P33032 1-325)
melanocortin 5 receptor, sequence (P33032 whole entry): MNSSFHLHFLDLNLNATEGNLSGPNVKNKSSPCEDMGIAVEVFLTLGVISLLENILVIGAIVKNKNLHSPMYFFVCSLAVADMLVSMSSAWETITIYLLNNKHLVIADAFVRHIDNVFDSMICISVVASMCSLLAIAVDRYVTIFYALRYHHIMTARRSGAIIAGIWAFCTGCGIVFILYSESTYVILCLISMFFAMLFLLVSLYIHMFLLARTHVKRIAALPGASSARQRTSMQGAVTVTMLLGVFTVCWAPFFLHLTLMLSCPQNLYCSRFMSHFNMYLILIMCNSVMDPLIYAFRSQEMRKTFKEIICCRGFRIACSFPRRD

[2] = target: melanocortin-4 receptor (human, UniProt P32245 1-332)
melanocortin-4 receptor, sequence (P32245 whole entry): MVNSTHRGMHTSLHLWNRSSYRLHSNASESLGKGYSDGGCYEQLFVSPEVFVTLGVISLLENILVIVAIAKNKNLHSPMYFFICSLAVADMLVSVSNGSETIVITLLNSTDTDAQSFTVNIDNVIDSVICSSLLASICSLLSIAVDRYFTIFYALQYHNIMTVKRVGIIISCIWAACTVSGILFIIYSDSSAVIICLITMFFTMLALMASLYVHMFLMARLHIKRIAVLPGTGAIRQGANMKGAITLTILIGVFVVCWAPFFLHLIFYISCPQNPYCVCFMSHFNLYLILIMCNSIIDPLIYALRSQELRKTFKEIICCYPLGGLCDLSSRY

[3] = target: melanocortin 3 receptor (human, UniProt P41968 1-323)
melanocortin 3 receptor, sequence (P41968 whole entry): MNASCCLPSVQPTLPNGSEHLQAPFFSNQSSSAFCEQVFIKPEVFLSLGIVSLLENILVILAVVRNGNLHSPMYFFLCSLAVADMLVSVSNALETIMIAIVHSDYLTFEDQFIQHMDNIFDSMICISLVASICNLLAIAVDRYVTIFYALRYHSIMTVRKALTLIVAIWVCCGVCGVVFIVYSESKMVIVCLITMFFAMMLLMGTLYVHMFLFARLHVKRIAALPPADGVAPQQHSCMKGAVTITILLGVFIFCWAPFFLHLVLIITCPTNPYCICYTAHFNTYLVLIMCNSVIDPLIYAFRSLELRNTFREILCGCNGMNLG

[4] = target: melanocortin 1 receptor (human, UniProt Q01726 1-317)
melanocortin 1 receptor, sequence (Q01726 whole entry): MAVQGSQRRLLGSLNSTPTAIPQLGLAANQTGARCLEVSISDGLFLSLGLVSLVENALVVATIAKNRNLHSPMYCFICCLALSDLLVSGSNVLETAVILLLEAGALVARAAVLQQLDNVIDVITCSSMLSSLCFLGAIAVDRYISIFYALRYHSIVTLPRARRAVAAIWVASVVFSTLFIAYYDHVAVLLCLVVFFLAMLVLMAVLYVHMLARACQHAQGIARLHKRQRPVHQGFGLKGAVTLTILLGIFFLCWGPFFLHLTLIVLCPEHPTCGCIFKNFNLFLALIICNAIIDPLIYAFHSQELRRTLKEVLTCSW

| Binder | EC-50 (nM), cAMP accumulation [1] [nM] | EC-50 (nM), cAMP accumulation [2] [nM] | EC-50 (nM), cAMP accumulation [3] [nM] | Selectivity Ratio MC4R/MC3R (of EC-50 values) [3] | EC-50 (nM), cAMP accumulation [4] [nM] |
| --- | --- | --- | --- | --- | --- |
| B1 | 2050 | 1.11 | > 3000 | > 2710 | 516 |
| Ac-R[hCys]Q[dF]RW[Pen]-NH2 (disulfide 2-7) [001555C, Ac-Arg-(hCys-Gln-D-Phe-Arg-Trp-Pen)-NH2] | 124 | 0.19 | 0.52 | 2.68 | 47.5 |
| B2 | 67.3 | 0.66 | 1.16 | 1.75 | 23.6 |
| Ac-R[hCys]N[dF]RW[Pen]-NH2 (disulfide 2-7) [001554C, Ac-Arg-(hCys-Asn-D-Phe-Arg-Trp-Pen)-NH2] | 735 | 1.6 | > 3000 | > 1870 | 235 |
| B3 | 1700 | 1.86 | > 3000 | > 1620 | 229 |

Source: patent US20220226425A1 (RHYTHM PHARMACEUTICALS, published 2022)
